Assay results published in publication PMC6358683.

Legend:
[1] = target: HA of A/New Caledonia/20/1999 (influenza A virus A/New Caledonia/20/1999) (UniProt Q6WG00)
[2] = target: HA of A/mallard/Alberta/35/1976 (influenza A virus A/mallard/Alberta/35/1976); assay: BLI

Substance: C05 WT (antibody)
- HAI, antibody concentration at the endpoint titer; virus A/New Caledonia/20/1999 [1]: 0.2 µg/mL
- Kd [2]: 511 nM
- koff [2]: 0.0021 s⁻¹
- kon [2]: 4100 M⁻¹ s⁻¹
